Common to all, as to assay: cell_activity
Series [1] has as its system TnsA+TnsB+TnsC S401YΔ402 TnsC S401Y, Δ402 (Escherichia coli (Tn7)?). To be noted: lambda hop; inhibited somewhat by TnsD.
Series [2] relates to TnsA+TnsB+TnsC A225V TnsC A225V (Escherichia coli (Tn7)?).
Series [3] concerns TnsA+TnsB+TnsC+TnsE (Escherichia coli (Tn7)?). To be noted: lambda hop.
Series [4] has as its target TnsA+TnsB+TnsC+TnsD (Escherichia coli (Tn7)?) (UniProt P13988+P13989+P05846+A0A0H2XLP6). To be noted: lambda hop.
For series [5], the system named is TnsA+TnsB+TnsC+TnsD+TnsE (Escherichia coli (Tn7)?). To be noted: mating-out assay; +/- 1.1e-4.
Series [6] addresses TnsA+TnsB+TnsC (wild type) (Escherichia coli (Tn7)?) (UniProt P13988+P13989+P05846). To be noted: mating-out assay.

“E. coli chromosome target (miniTn7-KmR from lambda KK1)”: the relative transposition activity (fold vs TnsABCwt+E) in series [1] is 50; in series [2] (lambda hop, stimulated 500-fold by TnsD+attTn7), 8. Also, the activity (KmR colonies/pfu) in series [3] amounted to 2.2e-07; in series [4], 0.00018.

Take pOX-G conjugable target plasmid: the activity (transposition frequency) is 8.8e-06 in series [2] (mating-out assay, +/- 8.1e-6); 0.00055 in series [5]; below 1e-07 in series [6].

The values are drawn from patent US6420524.
